The record followed here is publication PMC9138527.

What all share (assay): EMSA
For data set [1], the system named is Protamine-like proteins mixture (PL-II, PL-III, PL-IV), 1 nM Cr(VI)-exposed mussels (Mytilus galloprovincialis). As to conditions: mussels exposed to 1 nM Cr(VI); saturation not reached; DNA (150 ng pGEM3 or 450 ng sperm DNA) plus PLs in ultrapure water, 30 uL, 5 min, room temperature; TBE to 1x added just before the run; 1% (plasmid) or 0.6% ….
Data set [2] has as its system Protamine-like proteins mixture (PL-II, PL-III, PL-IV), 10 nM Cr(VI)-exposed mussels (Mytilus galloprovincialis). To be noted: mussels exposed to 10 nM Cr(VI), DNA (150 ng pGEM3 or 450 ng sperm DNA) plus PLs in ultrapure water, 30 uL, 5 min, room temperature, TBE to 1x added just before the run, 1% (plasmid) or 0.6% ….
The subject of data set [3] is Protamine-like proteins mixture (PL-II, PL-III, PL-IV), 100 nM Cr(VI)-exposed mussels (Mytilus galloprovincialis). As to conditions: mussels exposed to 100 nM Cr(VI), DNA (150 ng pGEM3 or 450 ng sperm DNA) plus PLs in ultrapure water, 30 uL, 5 min, room temperature, TBE to 1x added just before the run, 1% (plasmid) or 0.6% ….
Data set [4] has as its system Protamine-like proteins mixture (PL-II, PL-III, PL-IV), unexposed mussels (Mytilus galloprovincialis). To be noted: DNA (150 ng pGEM3 or 450 ng sperm DNA) plus PLs in ultrapure water, 30 uL, 5 min, room temperature, TBE to 1x added just before the run, 1% (plasmid) or 0.6% ….
The mark [5] stands for this setting: scale: wt/wt protein/DNA at almost complete saturation.

Take pGEM3 plasmid: the binding signal (wt/wt protein/DNA at saturation) was > 1.8 in data set [1], 0.8 in data set [2], 0.8 in data set [3] and 0.8 in data set [4].

On to sperm genomic DNA, for which the binding signal was found to be 0.6 in data set [2] (setting [5]); 0.6 in data set [3] (setting [5]); 0.6 in data set [4] (unexposed, scale: wt/wt protein/DNA at almost complete saturation).
